Source: article PMC5700975 (2017)

B1: Myc3-iSH2-p110β (wild type) [bovine | human] / GST-Rab5 wild-type [canine] (parent complex)
chain 1: LYEDYTRTSQEIQMKRTAIEAFNETIKIFEEQCQTQERYSKEYIEKFKREGNETEIQRIMHNYEKLKSRISEIVDSRRRLEEDLKKQAAEYREIDKRMNSIKGGGGGGGMCFSFIMPPAMADILDIWAVDSQIASDGSIPVDFLLPTGIYIQLEVPREATISYIKQMLWKQVHNYPMFNLLMDIDSYMFACVNQTAVYEELEDETRRLCDVRPFLPVLKLVTRSCDPGEKLDSKIGVLIGKGLHEFDSLKDPEVNEFRRKMRKFSEEKILSLVGLSWMDWLKQTYPPEHEPSIPENLEDKLYGGKLIVAVHFENCQDVFSFQVSPNMNPIKVNELAIQKRLTIHGKEDEVSPYDYVLQVSGRVEYVFGDHPLIQFQYIRNCVMNRALPHFILVECCKIKKMYEQEMIAIEAAINRNSSNLPLPLPPKKTRIISHVWENNNPFQIVLVKGNKLNTEETVKVHVRAGLFHGTELLCKTIVSSEVSGKNDHIWNEPLEFDINICDLPRMARLCFAVYAVLDKVKTKKSTKTINPSKYQTIRKAGKVHYPVAWVNTMVFDFKGQLRTGDIILHSWSSFPDELEEMLNPMGTVQTNPYTENATALHVKFPENKKQPYYYPPFDKIIEKAAEIASSDSANVSSRGGKKFLPVLKEILDRDPLSQLCENEMDLIWTLRQDCREIFPQSLPKLLLSIKWNKLEDVAQLQALLQIWPKLPPREALELLDFNYPDQYVREYAVGCLRQMSDEELSQYLLQLVQVLKYEPFLDCALSRFLLERALGNRRIGQFLFWHLRSEVHIPAVSVQFGVILEAYCRGSVGHMKVLSKQVEALNKLKTLNSLIKLNAVKLNRAKGKEAMHTCLKQSAYREALSDLQSPLNPCVILSELYVEKCKYMDSKMKPLWLVYNNKVFGEDSVGVIFKNGDDLRQDMLTLQMLRLMDLLWKEAGLDLRMLPYGCLATGDRSGLIEVVSTSETIADIQLNSSNVAAAAAFNKDALLNWLKEYNSGDDLDRAIEEFTLSCAGYCVASYVLGIGDRHSDNIMVKKTGQLFHIDFGHILGNFKSKFGIKRERVPFILTYDFIHVIQQGKTGNTEKFGRFRQCCEDAYLILRRHGNLFITLFALMLTAGLPELTSVKDIQYLKDSLALGKSEEEALKQFKQKFDEALRESWTTKVNWMAHTVRKDYRS
chain 2: ANRGATRPNGPNTGNKICQFKLVLLGESAVGKSSLVLRFVKGQFHEFQESTIGAAFLTQTVCLDDTTVKFEIWDTAGQERYHSLAPMYYRGAQAAIVVYDITNEESFARAKNWVKELQRQASPNIVIALSGNKADLANKRAVDFQEAQSYADDNSLLFMETSAKTSMNVNEIFMAIAKKLPKNEPQNPGANSARGRGVDLTEPTQPTRSQCCSN

Variants of: B1
Assay: GST pull-down, anti-Myc immunoblot quantification; GST-Rab5 fusion proteins (10 µg) on glutathione Sepharose beads, GppCp-loaded; Myc-iSH2-p110β from transfected COS-1 lysates; parent: 100; read off a plot

Question: With chain 2 R90E as the variant, how does the percent of parent read?
Answer: Its percent of parent is ~20 % WT.

Question: For chain 2 R80E, which percent of parent is on record?
Answer: Its percent of parent is ~23 % WT.

Question: With chain 2 F56A as the variant, how does the percent of parent read?
Answer: The percent of parent was ~24 % WT.

Question: For chain 2 I52A, which percent of parent is on record?
Answer: The percent of parent was ~7 % WT.

Question: chain 2 Q43E was tested. Which percent of parent did it give?
Answer: Its percent of parent is ~115 % WT.

Question: Which percent of parent does the source give for chain 2 W73A here?
Answer: The percent of parent was ~26 % WT.

Question: Which percent of parent does the source give for chain 2 L84A here?
Answer: The percent of parent was ~16 % WT.

Question: For chain 2 E46A, which percent of parent is on record?
Answer: Its percent of parent is ~72 % WT.

Question: How did the percent of parent turn out when chain 2 H45A was run?
Answer: The percent of parent was ~110 % WT.

Question: How did the percent of parent turn out when chain 2 S83A was run?
Answer: The percent of parent was ~112 % WT.

Question: With chain 2 Y81A as the variant, how does the percent of parent read?
Answer: The percent of parent was ~8 % WT.

Question: chain 2 H82E was tested. Which percent of parent did it give?
Answer: Its percent of parent is ~12 % WT.

Question: How did the percent of parent turn out when chain 2 Y88A was run?
Answer: Its percent of parent is ~15 % WT.

Variants of: B1
Assay: GST pull-down, anti-Myc immunoblot quantification; GST-Rab5 loaded with GppCp; parent: 100; read off a plot

Question: For chain 1 Y353A, which percent of parent is on record?
Answer: Its percent of parent is ~7 % WT.

Question: chain 1 L341A was tested. Which percent of parent did it give?
Answer: Its percent of parent is ~117 % WT.

Question: For chain 1 D348R, which percent of parent is on record?
Answer: The percent of parent was ~190 % WT.
